{
  "source": "paper PMC12949589",
  "about": "(Neurobiology of disease, 2020)",
  "binders": {"B1": {"name": "PACT C77S, mammalian two-hybrid fusion (natural protein, human, UniProt O75569 1-313, looked up)", "chain": "MSQSRHRAEAPPLEREDSGTFSLGKMITAKPGKTPIQVLHEYGMKTKNIPVYECERSDVQIHVPTFTFRVTVGDITSTGEGTSKKLAKHRAAEAAINILKANASICFAVPDPLMPDPSKQPKNQLNPIGSLQELAIHHGWRLPEYTLSQEGGPAHKREYTTICRLESFMETGKGASKKQAKRNAAEKFLAKFSNISPENHISLTNVVGHSLGCTWHSLRNSPGEKINLLKRSLLSIPNTDYIQLLSEIAKEQGFNITYLDIDELSANGQYQCLAELSTSPITVCHGSGISCGNAQSDAAHNALQYLKIIAERK"}},
  "biological_target": "T1, PACT C213F, mammalian two-hybrid fusion (human, UniProt O75569 1-313, C213F)",
  "T1 sequence (looked up)": "B1 chain with S77C, C213F",
  "assay": "two-hybrid",
  "note": "Where a chain is given by its changes, count along the chain named. Names may count otherwise.",
  "data": [
    {"binder": "B1", "values": [
      {"measurement": "fold over wt PACT-wt PACT interaction (luciferase reporter)", "result": "~9", "unit": "fold"}
    ]}
  ]
}
